Experimental findings from patent US20130195871A1 (AbbVie / Abbott, published 2013) are described below.

One experiment has as its target T1, EGFR on the cell surface (human, UniProt P00533 25-1210).
T1 construct: whole, on cells
The experiment can be described thus: flow cytometry on cells, 2 ug/mL, C-terminal VD.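 Also: cells stained for 30 to 60 min on ice.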

In experiment [1] the target is T2, Recombinant Human MSP Receptor ECD-His tag (human, UniProt Q04912 25-957).
T2 construct: extracellular domain; bought reagent; also called RON
The experiment can be described thus: SPR (Biacore), C-terminal VD.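 Also: surface plasmon resonance with DVD-Ig proteins captured on an anti-IgG chip and recombinant antigen flowed over in HBS-EP buffer, Langmuir global fit, KD taken as koff/kon.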

Experiment [2] concerns the target T3, Recombinant Human ErbB3/FC Chimera-His tag (human, UniProt P21860 20-643).
T3 construct: bought reagent
Description: SPR (Biacore), N-terminal VD.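 Also: capture of antibodies or DVD-Ig proteins on an anti-mouse IgG chip surface, recombinant antigen injected at 10–200 nM in HBS-EP running buffer at 25 °C.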
Description: The BIACORE assay (Biacore, Inc, Piscataway, N.J.) determined the affinity of antibodies or DVD-Ig proteins with kinetic measurements of on-rate and off-rate constants. Binding of antibodies or DVD-Ig proteins to a target antigen (for example, a purified recombinant target antigen) was determined by surface plasmon resonance-based measurements with a Biacore® 1000 or 3000 instrument (Biacore AB, Uppsala. Sweden) using running HBS-EP (10 mM HEPES [pH 7.4], 150 mM NaCl, 3 mM EDTA, and 0.005% surfactant P20) at 25° C. […] For example, approximately 5000 RU of goat anti-mouse IgG, (Fcγ), fragment specific polyclonal antibody (Pierce Biotechnology Inc, Rockford, Ill.) diluted in 10 mM sodium acetate (pH 4.5) was directly immobilized across a CM5 research grade biosensor chip using a standard amine coupling kit according to manufacturer's instructions and procedures at 25 μg/ml. Unreacted moieties on the biosensor surface were blocked with ethanolamine. Modified carboxymethyl dextran surface in flowcell 2 and 4 was used as a reaction surface. Unmodified carboxymethyl dextran without goat anti-mouse IgG in flow cell 1 and 3 was used as the reference surface. For kinetic analysis, rate equations derived from the 1:1 Langmuir binding model were fitted simultaneously to association and dissociation phases of all eight injections (using global fit analysis) with the use of Biaevaluation 4.0.1 software. Purified antibodies or DVD-Ig proteins were diluted in HEPES-buffered saline for capture across goat anti-mouse IgG specific reaction surfaces. Antibodies or DVD-Ig proteins to be captured as a ligand (25 μg/ml) were injected over reaction matrices at a flow rate of 5 μl/minute. The association and dissociation rate constants, kₒₙ (M⁻¹s⁻¹) and koff (s⁻¹) were determined under a continuous flow rate of 25 μl/minute. Rate constants were derived by making kinetic binding measurements at different antigen concentrations ranging from 10-200 nM. The equilibrium dissociation constant (M) of the reaction between antibodies or DVD-Ig proteins and the target antigen was then calculated from the kinetic rate constants by the following formula: KD=koff/kₒₙ. Binding was recorded as a function of time and kinetic rate constants were calculated.

B1: DVD2338 (bispecific antibody)
VH: QVQLQESGPGLVKPSEILSLTCTVSGGSISSHYWSWVRQPPGKGLEWIGYIYYSGSTNYNPSLKSRVTISVDTSKNQFSLNLSSVTAADTAVYYCARIPNYYDRSGYYPGYWYFDLWGRGTLVTVSSASTKGPEVQLVESGGGLVQPGGSLRLSCAASGFSLTNYGVHWVRQAPGKGLEWLGVGWSGGNTDYNTPFTSRLTINKDNSKNTVYLQMNSLRAEDTAVYYCARALTWYDYEFAYWGQGTLVTVSS
VL: QAVLTQPSSLSAPPGASASLTCTLRSGFNVDSYRISWYQQKPGSPPQYLLRYKSDSDKQQGSGVPSRFSGSKDASANAGILLISGLQSEDEADYYCMIWHSSAWVFGGGTKLTVLRQPKAAPDILLTQSPGTLSLSPGERATLSCRASQSIYTNIHWYQQKPGQAPRLLIKYASESISGIPDRFSGSGSGTDFTLTISRLEPEDFAVYYCQQNLNWPTTFGQGTKLEIK
notes: DVD-Ig, outer AB034 / inner AB400
On to B1, for which the “GEO MEAN” value with EGFR on the cell surface is 252.

B2: DVD2319 (bispecific antibody)
VH: EVQLVESGGGLVQPGGSLRLSCAASGFTFSIYSMNWVRQAPGKGLEWVSYISSSSSTIYYADSVKGRFTISRDNAKNSLYLQMNSLRDEDTAVYYCARDRGDFDAFDIWGQGTMVTVSSASTKGPEVQLVQSGGGLVKPGGSLRLSCAASGFTFSSYAMHWVRQAPGKGLEWVAVISYDGSNKYYADSVKGRFTISRDNSKNTLYLQMNSLRAEDTAVYYCARFSGWPNNYYYYGMDVWGQGTTVTVSS
VL: DIQMTQSPSSLSASVGDRVTITCQASQDITNYLNWYQQKPGKAPKLLIYDASNLETGVPSRFSGSGSGTDFTFTISSLQPEDIATYNCQQCENFPITFGQGTRLEIKRTVAAPDVVMTQSPLSLPVTPGEPASISCRSSQSLLHSNGFNYVDWYLQKPGQSPHLLIYFGSYRASGVPDRFSGSGSGTDFTLKISRVEAEDVGVYYCMQALQTPPWTFGQGTKVEIR
notes: DVD-Ig, outer AB063 / inner AB005
Regarding B2, the binding result in experiment [1] is “no binding (tested: 10-200 nM)”. In addition, in experiment [2], the Kd is 5.4 nM, the koff was found to be 0.0017 s⁻¹ and the kon stood at 310000 M⁻¹ s⁻¹.

B3: DVD2307 (bispecific antibody)
VH: EVQLVQSGGGLVKPGGSLRLSCAASGFTFSSFAMHWVRQAPGKGLEWISVIDTRGATYYADSVKGRFTISRDNAKNSLYLQMNSLRAEDTAVYYCARLGNFYYGMDVWGQGTTVTVSSASTKGPEVQLVESGGGLVQPGGSLRLSCAASGFSLTNYGVHWVRQAPGKGLEWLGVGWSGGNTDYNTPFTSRLTINKDNSKNTVYLQMNSLRAEDTAVYYCARALTWYDYEFAYWGQGTLVTVSS
VL: EIVLTQSPGTLSVSPGERATLSCRASQSIGSSLHWYQQKPGQAPRLLIKYASQSLSGIPDRFSGSGSGTDFTLTISRLEPEDFAVYYCHQSSRLPHTFGQGTKVEIKRTVAAPDILLTQSPGTLSLSPGERATLSCRASQSIYTNIHWYQQKPGQAPRLLIKYASESISGIPDRFSGSGSGTDFTLTISRLEPEDFAVYYCQQNLNWPTTFGQGTKLEIK
notes: DVD-Ig, outer AB077 / inner AB400
For B3, the “GEO MEAN” value with EGFR on the cell surface is 266.

B4: DVD2303 (bispecific antibody)
VH: EVQLVESGGGLVQPGGSLRLSCAASGFTFTDYTMDWVRQAPGKGLEWVADVNPNSGGSIYNQRFKGRFTLSVDRSKNTLYLQMNSLRAEDTAVYYCARNLGPSFYFDYWGQGTLVTVSSASTKGPEVQLVESGGGLVQPGGSLRLSCAASGFSLTNYGVHWVRQAPGKGLEWLGVGWSGGNTDYNTPFTSRLTINKDNSKNTVYLQMNSLRAEDTAVYYCARALTWYDYEFAYWGQGTLVTVSS
VL: DIQMTQSPSSLSASVGDRVTITCKASQDVSIGVAWYQQKPGKAPKLLIYSASYRYTGVPSRFSGSGSGTDFTLTISSLQPEDFATYYCQQYYIYPYTFGQGTKVEIKRTVAAPDILLTQSPGTLSLSPGERATLSCRASQSIYTNIHWYQQKPGQAPRLLIKYASESISGIPDRFSGSGSGTDFTLTISRLEPEDFAVYYCQQNLNWPTTFGQGTKLEIK
notes: DVD-Ig, outer AB080 / inner AB400
Consider B4, for which the “GEO MEAN” value with EGFR on the cell surface is 185.

B5: DVD2321 (bispecific antibody)
VH: EVQLLESGGGLVQPGGSLRLSCAASGFTFSHYVMAWVRQAPGKGLEWVSSISSSGGWTLYADSVKGRFTISRDNSKNTLYLQMNSLRAEDTAVYYCTRGLKMATIFDYWGQGTLVTVSSASTKGPEVQLVQSGGGLVKPGGSLRLSCAASGFTFSSYAMHWVRQAPGKGLEWVAVISYDGSNKYYADSVKGRFTISRDNSKNTLYLQMNSLRAEDTAVYYCARFSGWPNNYYYYGMDVWGQGTTVTVSS
VL: QSALTQPASVSGSPGQSITISCTGTSSDVGSYNVVSWYQQHPGKAPKLIIYEVSQRPSGVSNRFSGSKSGNTASLTISGLQTEDEADYYCCSYAGSSIFVIFGGGTKVTVLGQPKAAPDVVMTQSPLSLPVTPGEPASISCRSSQSLLHSNGFNYVDWYLQKPGQSPHLLIYFGSYRASGVPDRFSGSGSGTDFTLKISRVEAEDVGVYYCMQALQTPPWTFGQGTKVEIR
notes: DVD-Ig, outer AB116 / inner AB005
Take B5: the binding result in experiment [1] is given as “no binding (tested: 10-200 nM)”. Besides, in experiment [2], the Kd amounted to 12 nM, the off-rate (koff) amounted to 0.00031 s⁻¹ and the kon turned out to be 25000 M⁻¹ s⁻¹.

B6: DVD2333 (bispecific antibody)
VH: EVQLLESGGGLVQPGGSLRLSCAASGFTFSHYVMAWVRQAPGKGLEWVSSISSSGGWTLYADSVKGRFTISRDNSKNTLYLQMNSLRAEDTAVYYCTRGLKMATIFDYWGQGTLVTVSSASTKGPQVQLQESGPGLVKPSEILSLTCTVSGGSISSHYWSWVRQPPGKGLEWIGYIYYSGSTNYNPSLKSRVTISVDTSKNQFSLNLSSVTAADTAVYYCARIPNYYDRSGYYPGYWYFDLWGRGTLVTVSS
VL: QSALTQPASVSGSPGQSITISCTGTSSDVGSYNVVSWYQQHPGKAPKLIIYEVSQRPSGVSNRFSGSKSGNTASLTISGLQTEDEADYYCCSYAGSSIFVIFGGGTKVTVLGQPKAAPQAVLTQPSSLSAPPGASASLTCTLRSGFNVDSYRISWYQQKPGSPPQYLLRYKSDSDKQQGSGVPSRFSGSKDASANAGILLISGLQSEDEADYYCMIWHSSAWVFGGGTKLTVL
notes: DVD-Ig, outer AB116 / inner AB034
Turning to B6, the binding result in experiment [1] and in experiment [2] was “no binding (tested: 10-200 nM)” each time.

B7: DVD2323 (bispecific antibody)
VH: QVQLQQWGAGLLKPSETLSLTCAVYGGSFSGYYWSWIRQPPGKGLEWIGEINHSGSTNYNPSLKSRVTISVETSKNQFSLKLSSVTAADTAVYYCARDKWTWYFDLWGRGTLVTVSSASTKGPEVQLVQSGGGLVKPGGSLRLSCAASGFTFSSYAMHWVRQAPGKGLEWVAVISYDGSNKYYADSVKGRFTISRDNSKNTLYLQMNSLRAEDTAVYYCARFSGWPNNYYYYGMDVWGQGTTVTVSS
VL: DIEMTQSPDSLAVSLGERATINCRSSQSVLYSSSNRNYLAWYQQNPGQPPKLLIYWASTRESGVPDRFSGSGSGTDFTLTISSLQAEDVAVYYCQQYYSTPRTFGQGTKVEIKRTVAAPDVVMTQSPLSLPVTPGEPASISCRSSQSLLHSNGFNYVDWYLQKPGQSPHLLIYFGSYRASGVPDRFSGSGSGTDFTLKISRVEAEDVGVYYCMQALQTPPWTFGQGTKVEIR
notes: DVD-Ig, outer AB062 / inner AB005
Turning to B7, the binding result in experiment [1] is “no binding (tested: 10-200 nM)”. Also, in experiment [2], the equilibrium dissociation constant (Kd) is 7.7 nM, the dissociation rate constant (koff) came out at 0.00046 s⁻¹ and the kon was 60000 M⁻¹ s⁻¹.

B8: DVD2299 (bispecific antibody)
VH: EVQLVQSGGGLVKPGGSLRLSCAASGFTFSSYAMHWVRQAPGKGLEWVAVISYDGSNKYYADSVKGRFTISRDNSKNTLYLQMNSLRAEDTAVYYCARFSGWPNNYYYYGMDVWGQGTTVTVSSASTKGPEVQLVESGGGLVQPGGSLRLSCAASGFSLTNYGVHWVRQAPGKGLEWLGVGWSGGNTDYNTPFTSRLTINKDNSKNTVYLQMNSLRAEDTAVYYCARALTWYDYEFAYWGQGTLVTVSS
VL: DVVMTQSPLSLPVTPGEPASISCRSSQSLLHSNGFNYVDWYLQKPGQSPHLLIYFGSYRASGVPDRFSGSGSGTDFTLKISRVEAEDVGVYYCMQALQTPPWTFGQGTKVEIRRTVAAPDILLTQSPGTLSLSPGERATLSCRASQSIYTNIHWYQQKPGQAPRLLIKYASESISGIPDRFSGSGSGTDFTLTISRLEPEDFAVYYCQQNLNWPTTFGQGTKLEIK
notes: DVD-Ig, outer AB005 / inner AB400
For B8, the “GEO MEAN” value in the experiment with EGFR on the cell surface stood at 320.
